In paper PMC10585736 one finds response (U/mg of protein) data, which are given here for three variants.

B1: Pol30p (PCNA), wild type, two-hybrid prey (pBL240-PCNA-Gal4AD) [S. cerevisiae] / Rrm3p, two-hybrid bait [S. cerevisiae] (parent)
chain 1: MLEAKFEEASLFKRIIDGFKDCVQLVNFQCKEDGIIAQAVDDSRVLLVSLEIGVEAFQEYRCDHPVTLGMDLTSLSKILRCGNNTDTLTLIADNTPDSIILLFEDTKKDRIAEYSLKLMDIDADFLKIEELQYDSTLSLPSSEFSKIVRDLSQLSDSINIMITKETIKFVADGDIGSGSVIIKPFVDMEHPETSIKLEMDQPVDLTFGAKYLLDIIKGSSLSDRVGIRLSSEAPALFQFDLKSGFLQFFLAPKFNDEE
chain 2: MFRSHASGNKKQWSKRSSNGSTPAASASGSHAYRQQTLSSFFMGCGKKSAAASKNSTTIIDLESGDEGNRNITAPPRPRLIRNNSSSLFSQSQGSFGDDDPDAEFKKLVDVPRLNSYKKSSRSLSMTSSLHKTASASTTQKTYHFDEDETLREVTSVKSNSRQLSFTSTINIEDSSMKLSTDSERPAKRSKPSMEFQGLKLTVPKKIKPLLRKTVSNMDSMNHRSASSPVVLTMEQERVVNLIVKKRTNVFYTGSAGTGKSVILQTIIRQLSSLYGKESIAITASTGLAAVTIGGSTLHKWSGIGIGNKTIDQLVKKIQSQKDLLAAWRYTKVLIIDEISMVDGNLLDKLEQIARRIRKNDDPFGGIQLVLTGDFFQLPPVAKKDEHNVVKFCFESEMWKRCIQKTILLTKVFRQQDNKLIDILNAIRYGELTVDIAKTIRNLNRDIDYADGIAPTELYATRREVELSNVKKLQSLPGDLYEFKAVDNAPERYQAILDSSLMVEKVVALKEDAQVMMLKNKPDVELVNGSLGKVLFFVTESLVVKMKEIYKIVDDEVVMDMRLVSRVIGNPLLKESKEFRQDLNARPLARLERLKILINYAVKISPHKEKFPYVRWTVGKNKYIHELMVPERFPIDIPRENVGLERTQIPLMLCWALSIHKAQGQTIQRLKVDLRRIFEAGQVYVALSRAVTMDTLQVLNFDPGKIRTNERVKDFYKRLETLK

Variants of B1 are the subject of the first experiment. The experiment can be described thus: yeast two-hybrid (β-galactosidase). The following applies: with Rrm3p, prey Pol30-6p, parent: 1.3, read off a plot.
Regarding chain 1 D41A D42A, the response (U/mg of protein) came to 0.58.

The same experiment, now with this note: with Rrm3p, prey Pol30-79p, parent: 1.3, read off a plot.
Take chain 1 L126A I128A: the response (U/mg of protein) turned out to be 1.3.

Staying with this experiment, now noted: with Rrm3p, prey Pol30-8p, parent: 1.3, read off a plot.
For chain 1 R61A D63A, the response (U/mg of protein) was determined as 0.75.
